{"source": "the emibetuzumab library of Makowski et al. (2022)", "parents": {"B1": {"name": "VH:VL chains; a variant is named by its letters at X, in order (parent)", "chain 1": "QVQLVQSGAEVKKPGASVKVSCKASGYTFTDYXMHWVRQAPGQGLEWMGXVNPNXXXTTYNQKFEGRVTMTTDTSTSTAYMELRSLRSDDTAVYYCARXNXLDXWGQGTTVTVSS", "chain 2": "DIQMTQSPSSLSASVGDRVTITCSVSSSVSSIYLHWYQQKPGKAPKLLIYSTSNLASGVPSRFSGSGSGTDFTLTISSLQPEDFATYYCQVYSGYPLTFGGGTKVEIK"}}}
{"variants_of": "B1", "experiment": "yeast display scFab, FACS + sequencing", "outline": "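Non-specific binding was called from deep sequencing of sorted yeast cells displaying a heavy-chain CDR mutant scFab library. Cells labelled with anti-Myc and biotinylated ovalbumin (260 μg/mL in PBSB, 3 h, room temperature) or soluble membrane proteins (130 μg/mL, 20 min on ice) were FACS-sorted, collecting the top 25% and bottom 10% of binders from two replicates. A sequence was positive when present in ≥3 of 4 pooled positive samples and absent from all negatives, and negative under the converse rule.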"}
{"variant": "YRGGASAA", "non-specific binding call": "binds"}
{"variant": "YRGGASGA", "non-specific binding call": "binds"}
{"variant": "FRGGASSD", "non-specific binding call": "binds"}
{"variant": "YRGGASWV", "non-specific binding call": "binds"}
{"variant": "YRGGDAAF", "non-specific binding call": "no binding"}
{"variant": "VRGGDAAS", "non-specific binding call": "no binding"}
{"variant": "DRGGDAVA", "non-specific binding call": "no binding"}
{"variant": "VRGGDAVA", "non-specific binding call": "no binding"}
{"variant": "VRGGDAVS", "non-specific binding call": "no binding"}
{"variant": "DRGGDAVV", "non-specific binding call": "no binding"}
{"variant": "VRGGDAVY chain 1 G44D", "non-specific binding call": "no binding"}
{"variant": "DRGGDDAA", "non-specific binding call": "no binding"}
{"variant": "DRGGDDAD", "non-specific binding call": "no binding"}
{"variant": "ARGGDDGA", "non-specific binding call": "no binding"}
{"variant": "VRGGDDGS", "non-specific binding call": "no binding"}
{"variant": "DRGGDDGS", "non-specific binding call": "no binding"}
{"variant": "VRGGDDGV", "non-specific binding call": "no binding"}
{"variant": "YRGGDDLV", "non-specific binding call": "no binding"}
{"variant": "DRGGDDLV", "non-specific binding call": "no binding"}
{"variant": "YRGGDDLY", "non-specific binding call": "no binding"}
{"variant": "YRGGDDSS", "non-specific binding call": "no binding"}
{"variant": "YRGGDDSV", "non-specific binding call": "no binding"}
{"variant": "SRGGDDVA", "non-specific binding call": "no binding"}
{"variant": "DRGGDDVD", "non-specific binding call": "no binding"}
{"variant": "VRGGDDVF", "non-specific binding call": "no binding"}
{"variant": "DRGGDDVV", "non-specific binding call": "no binding"}
{"variant": "DRGGDDVY", "non-specific binding call": "no binding"}
{"variant": "VRGGDDWA", "non-specific binding call": "no binding"}
{"variant": "VRGGDDWF", "non-specific binding call": "no binding"}
{"variant": "DRGGDDWV", "non-specific binding call": "no binding"}
{"variant": "DRGGDDWY", "non-specific binding call": "no binding"}
{"variant": "FRGGDSAD", "non-specific binding call": "binds"}
{"variant": "YRGGDSAS", "non-specific binding call": "no binding"}
{"variant": "YRGGDSAY", "non-specific binding call": "no binding"}
{"variant": "DRGGDSLD", "non-specific binding call": "no binding"}
{"variant": "DRGGDSSS", "non-specific binding call": "no binding"}
{"variant": "YRGGDSSY", "non-specific binding call": "no binding"}
{"variant": "DRGGDVSD", "non-specific binding call": "binds"}
{"variant": "YRGGDYGA", "non-specific binding call": "no binding"}
{"variant": "FRGGDYGS", "non-specific binding call": "binds"}
{"variant": "YRGGDYLV", "non-specific binding call": "no binding"}
{"variant": "YRGGDYSV", "non-specific binding call": "no binding"}
{"variant": "YRGGGAAF", "non-specific binding call": "binds"}
{"variant": "VRGGGAAV", "non-specific binding call": "no binding"}
{"variant": "VRGGGAAY", "non-specific binding call": "no binding"}
{"variant": "SRGGGALD", "non-specific binding call": "no binding"}
{"variant": "YRGGGALS", "non-specific binding call": "binds"}
{"variant": "FRGGGAVA", "non-specific binding call": "binds"}
{"variant": "FRGGGAVS", "non-specific binding call": "binds"}
{"variant": "VRGGGAWV", "non-specific binding call": "binds"}
{"variant": "VRGGGDAA", "non-specific binding call": "no binding"}
{"variant": "DRGGGDAS", "non-specific binding call": "no binding"}
{"variant": "YRGGGDGF", "non-specific binding call": "no binding"}
{"variant": "DRGGGDGV", "non-specific binding call": "no binding"}
{"variant": "VRGGGDGY", "non-specific binding call": "no binding"}
{"variant": "YRGGGDSV", "non-specific binding call": "no binding"}
{"variant": "YRGGGDVS", "non-specific binding call": "binds"}
{"variant": "FRGGGDWD", "non-specific binding call": "no binding"}
{"variant": "YRGGGDWV", "non-specific binding call": "no binding"}
{"variant": "VRGGGDWV", "non-specific binding call": "no binding"}
{"variant": "YRGGGFAD", "non-specific binding call": "binds"}
{"variant": "VRGGGFGD", "non-specific binding call": "binds"}
{"variant": "VRGGGFGV", "non-specific binding call": "no binding"}
{"variant": "FRGGGFVV", "non-specific binding call": "binds"}
{"variant": "FRGGGSAA", "non-specific binding call": "binds"}
{"variant": "VRGGGSAA", "non-specific binding call": "binds"}
{"variant": "YRGGGSAA", "non-specific binding call": "binds"}
{"variant": "FRGGGSGF", "non-specific binding call": "binds"}
{"variant": "YRGGGSGS", "non-specific binding call": "binds"}
{"variant": "FRGGGSGS", "non-specific binding call": "binds"}
{"variant": "FRGGGSGV", "non-specific binding call": "binds"}
{"variant": "FRGGGSLD", "non-specific binding call": "binds"}
{"variant": "FRGGGSSA", "non-specific binding call": "binds"}
{"variant": "YRGGGSVF", "non-specific binding call": "binds"}
{"variant": "FRGGGSVS", "non-specific binding call": "binds"}
{"variant": "FRGGGSWA", "non-specific binding call": "binds"}
{"variant": "VRGGGVGV", "non-specific binding call": "binds"}
{"variant": "FRGGGVGV", "non-specific binding call": "binds"}
{"variant": "SRGGGVGY", "non-specific binding call": "binds"}
{"variant": "YRGGGVVD", "non-specific binding call": "binds"}
{"variant": "YRGGGYGF", "non-specific binding call": "binds"}
{"variant": "YRGGGYLV", "non-specific binding call": "no binding"}
{"variant": "YRGGSAGA", "non-specific binding call": "binds"}
{"variant": "DRGGSAGD", "non-specific binding call": "no binding"}
{"variant": "FRGGSAGD", "non-specific binding call": "binds"}
{"variant": "YRGGSAGF", "non-specific binding call": "binds"}
{"variant": "SRGGSALA", "non-specific binding call": "no binding"}
{"variant": "FRGGSAVD", "non-specific binding call": "binds"}
{"variant": "FRGGSAVY", "non-specific binding call": "binds"}
{"variant": "YRGGSDGS", "non-specific binding call": "no binding"}
{"variant": "VRGGSDGY", "non-specific binding call": "no binding"}
{"variant": "YRGGSDVA", "non-specific binding call": "no binding"}
{"variant": "VRGGSDVA", "non-specific binding call": "no binding"}
{"variant": "VRGGSDVD", "non-specific binding call": "no binding"}
{"variant": "FRGGSSAA", "non-specific binding call": "binds"}
{"variant": "DRGGSSAA", "non-specific binding call": "no binding"}
{"variant": "FRGGSSGS", "non-specific binding call": "binds"}
{"variant": "FRGGSSGV", "non-specific binding call": "binds"}
{"variant": "YRGGSSGY", "non-specific binding call": "binds"}
{"variant": "FRGGSVGY", "non-specific binding call": "binds"}
{"variant": "YRGGTAAA", "non-specific binding call": "binds"}
{"variant": "YRGGTFGF", "non-specific binding call": "binds"}
{"variant": "YRGGTSVD", "non-specific binding call": "binds"}
{"variant": "YRGKAAGD", "non-specific binding call": "binds"}
{"variant": "YRGKAAGV", "non-specific binding call": "binds"}
{"variant": "YRGKAAVD", "non-specific binding call": "binds"}
{"variant": "VRGKAAVS", "non-specific binding call": "binds"}
{"variant": "FRGKADVD", "non-specific binding call": "binds"}
{"variant": "YRGKAFGV", "non-specific binding call": "binds"}
{"variant": "VRGKAFVV", "non-specific binding call": "binds"}
{"variant": "YRGKASGD", "non-specific binding call": "binds"}
{"variant": "ARGKASSY", "non-specific binding call": "no binding"}
{"variant": "YRGKASVD", "non-specific binding call": "binds"}
{"variant": "YRGKASWD", "non-specific binding call": "binds"}
{"variant": "YRGKDAAY", "non-specific binding call": "binds"}
{"variant": "YRGKDAGA", "non-specific binding call": "binds"}
{"variant": "YRGKDALA", "non-specific binding call": "binds"}
{"variant": "FRGKDASA", "non-specific binding call": "no binding"}
{"variant": "YRGKDASD", "non-specific binding call": "binds"}
{"variant": "YRGKDAWS", "non-specific binding call": "binds"}
{"variant": "YRGKDAWY", "non-specific binding call": "binds"}
